Patent US20200038523A1 (TECHNISCHE UNIVERSIT T M NCHEN, published 2020)

B1: Anticalin candidate A2 (designed binder)
chain: QDSTSDLIPAPPLSKVPLQQNFQDNQFHGKWYVVGRAGNKPLREDKDPLKMWATIYELKEDKSYNVTIVWFDFKKCWYRISTFVPGSQPGEFTLGRIKSAPGVTSGLVRVVSTNYNQHAMVFFKYVFQNREWFHITLYGRTKELTSELKENFIRFSKSLGLPENHIVFPVPIDQCIDG
notes: not shown: C-terminal Strep-tag II
B2: Anticalin candidate H5 (designed binder)
chain: QDSTSDLIPAPPLSKVPLQQNFQDNQFHGKWYVVGTAGNWPLREDKDPHKMSATIYELKEDKSYNVTNVQFSSKKCLYFIGTFVPGSQPGEFTLGPIKSAPGQTSGLVRVVSTNYNQHAMVFFKQVIQNREAFIITLYGRTKELTSELKENFIRFSKSLGLPENHIVFPVPIDQCIDG
notes: as for B1

Biological target: T1, rhPSMA, extracellular part of human prostate-specific membrane antigen (residues 44-750) with native … (human, UniProt Q04609 44-750)
T1 construct: range 44-750; Secreted from Schneider S2 insect cells, glycosylated; also called wild-type rhPSMA; rhGCPII
T1 sequence (Q04609 44-750 limits assumed): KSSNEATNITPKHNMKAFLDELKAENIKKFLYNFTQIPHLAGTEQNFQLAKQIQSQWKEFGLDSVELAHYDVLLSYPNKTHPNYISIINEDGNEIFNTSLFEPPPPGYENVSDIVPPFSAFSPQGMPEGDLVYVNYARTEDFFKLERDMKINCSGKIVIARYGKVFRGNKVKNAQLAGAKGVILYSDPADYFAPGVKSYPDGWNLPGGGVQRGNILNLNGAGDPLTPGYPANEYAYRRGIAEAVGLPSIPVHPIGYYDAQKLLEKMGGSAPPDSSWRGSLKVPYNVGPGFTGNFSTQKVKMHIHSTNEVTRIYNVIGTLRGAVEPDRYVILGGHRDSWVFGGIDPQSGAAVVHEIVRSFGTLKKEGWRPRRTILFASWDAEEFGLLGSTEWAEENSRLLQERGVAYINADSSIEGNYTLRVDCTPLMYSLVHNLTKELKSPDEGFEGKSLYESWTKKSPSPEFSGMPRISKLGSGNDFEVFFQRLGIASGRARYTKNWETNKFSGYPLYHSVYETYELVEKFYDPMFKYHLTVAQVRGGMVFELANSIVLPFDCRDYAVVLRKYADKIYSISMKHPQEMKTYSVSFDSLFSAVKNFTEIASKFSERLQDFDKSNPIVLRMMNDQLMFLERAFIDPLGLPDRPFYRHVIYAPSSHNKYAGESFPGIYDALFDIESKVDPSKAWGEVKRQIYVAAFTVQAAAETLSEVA
Test: ELISA: rhPSMA coated on MaxiSorp plate, Anticalin dilution series, detection via Strep-tag II with StrepTactin/AP, absorbance at 405 nm
Source text: Binding activities of Anticalins selected from the original nave library (A) or resulting from subsequent affinity maturation of the A3 variant (B) were compared in an ELISA. A 96-well MaxiSorp plate was coated with rhPSMA (or ovalbumin as a negative control, not shown) and purified Anticalin variants were applied in dilution series. Anticalin binding was detected using StrepTactin/AP conjugate, followed by chromogenic reaction. Absorption was plotted against the Anticalin concentration and data were analyzed by curve fitting. Binding curves for the best performing clones A3 and A3A5 are shown as solid lines. (CE) SPR sensograms measured for Anticalins A3, A3A5 and A3A5.1 on a BIAcore 2000 instrument. […]
50 μL of rhPSMA (5 μg/mL in TBS) was directly adsorbed onto the surface of a MaxiSorp 96-well plate overnight at 4° C. […] The plates were washed three times and bound Anticalins were detected with StrepTactin-AP as described further above. The data were analyzed using Prism 5 software (GraphPad) and absorption values (A) were fitted according to the formula ΔA=Aₘₐₓ[Lₜₒₜ]/(KD+[Lₜₒₜ]) with the concentration of the applied lipocalin variant [Lₜₒₜ] and the dissociation constant KD.
Specific binding activities of selected Anticalins toward rhPSMA as well as apparent affinity constants were initially determined by ELISA in 96-well Maxisorp plates coated with the recombinant wild-type PSMA protein. […]

EC50 (read off the curve)	Binder
~10 nM	B1
~6 nM	B2
